Bridges are numbered along the chain shown (N, C = ends). Where no end group is shown, it is not given here. [ ]: non-standard residue; d: D form. The star is where a group is joined. hSer(lactone) = O=C1OCC[C@@H]1N*
T1: alpha subunit of the human FcεRI receptor expressed on cells (human, UniProt P12319 26-257)
T1 construct: whole, on cells; on rat basophil RBL-48 cells in the histamine release assay; also called CHO FcεRI+ cells; cell surface expressed FcεRI
T1 sequence (looked up): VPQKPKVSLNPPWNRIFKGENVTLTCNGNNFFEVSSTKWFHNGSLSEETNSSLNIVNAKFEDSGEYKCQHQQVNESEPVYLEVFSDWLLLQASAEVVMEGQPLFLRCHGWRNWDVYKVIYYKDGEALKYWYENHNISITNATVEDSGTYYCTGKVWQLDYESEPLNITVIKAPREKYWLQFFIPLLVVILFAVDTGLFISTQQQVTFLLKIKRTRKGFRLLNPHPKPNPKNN

T2: extracellular domain of the alpha subunit of the human FcεRI (aa 1-176), produced in baculovirus infected … (human, UniProt P12319 26-201, N-linked carbohydrate (NAG on Asn21 seen in the crystal); derivatised with PDEA for thiol coupling to the chip in the biosensor assay)
T2 construct: range 1-176; Residues 1-176 are probably counted without the signal peptide; also called FcεRIα; soluble FcεRI
T2 sequence (looked up): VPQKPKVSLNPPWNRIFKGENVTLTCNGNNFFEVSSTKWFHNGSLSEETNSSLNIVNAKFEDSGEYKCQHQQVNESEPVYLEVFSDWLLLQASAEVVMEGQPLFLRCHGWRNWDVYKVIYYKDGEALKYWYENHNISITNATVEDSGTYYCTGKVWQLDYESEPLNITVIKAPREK

T3: alpha subunit of the human FcεRI receptor expressed on Chinese hamster ovary cells (human, UniProt P12319 26-257)
T3 construct: whole, on cells; also called CHO FcεRI+ cells
T3 sequence (looked up): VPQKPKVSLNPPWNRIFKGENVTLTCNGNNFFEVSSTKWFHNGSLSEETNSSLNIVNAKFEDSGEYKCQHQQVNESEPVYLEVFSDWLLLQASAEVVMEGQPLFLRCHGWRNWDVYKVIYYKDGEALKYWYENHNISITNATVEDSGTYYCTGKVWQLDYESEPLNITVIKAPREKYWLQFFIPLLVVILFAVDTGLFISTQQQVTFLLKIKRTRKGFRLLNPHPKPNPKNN


Each binder was assayed against T1, alpha subunit of the human FcεRI … (assay: inhibition of 125I-IgE binding to CHO cells expressing human FcεRI alpha).
Method: (§1) To determine the ability of peptides to inhibit IgE binding to FcεRI, a cell-based binding assay was used with radiolabeled IgE. Chinese hamster ovary cells expressing the alpha subunit of the human FcεRI receptor were cultured overnight in Falcon 96 well microtiter plates at a concentration of 5 ×10^4 cells per well. The following day the cells were rinsed three times with PBS and then once with F12/DMEM. Peptide stocks were reconstituted in 100 mM Hepes buffered water, pH 7.2, at a concentration of 5 mg/mL. Working concentrations of the peptide were diluted in assay buffer (see below). 75 uL of a desired concentration of peptide was added to the top row of a separate 96 well microtiter plate and serially diluted 1:3 in 50 uL of the assay buffer (F12/DMEM, 1% BSA, 0.05% NaN_3 and 0.025 mM Hepes pH 7.2). Starting concentrations ranged from 50–500 uM. Next, 50 uL of the diluted peptide was transferred to the 96 microtiter well plate containing a monolayer of CHO FcεRI+ cells. […] Cells were
Alanine substitutions in IGE063 (SEQ ID NO:49) were used to assess sidechain contributions. The P9A (IGE070, SEQ ID NO:52) substitution had the largest impact with a >500× reduction in binding. […] Clearly the alanine substitutions at G8, P9, W10, G11 and W12 all had major impacts on binding FcεRI.

Binder	fold reduction in inhibition (against IGE063) [fold]	fold reduction in binding (against IGE063) [fold]	IC50 [µM]	fold improvement in activity over the … (SEQ ID NO:1) peptide [fold]
Ac-NLPRCTEGPWGWVCM (disulfide 5-14 (inferred)) [IGE063]	–	–	~1	–
NLPRCTEGPWAWVCM (disulfide 5-14 (inferred)) [IGE074]	–	30	–	–
NLPRCTEGPWGAVCM (disulfide 5-14 (inferred), also called W12A) [IGE073]	–	65	–	–
NLPRCTEGAWGWVCM (disulfide 5-14 (inferred), also called P9A) [IGE070]	–	> 500	–	–
Ac-NLPRCTAGPWGWVCMAAD-NH2 (disulfide 5-14 (inferred), also called E7A) [IGE059]	–	6	–	–

The next lines start with the values.

fold reduction in inhibition (against IGE063) [fold]	fold reduction in binding (against IGE063) [fold]	IC50 [µM]	fold improvement in activity over the … (SEQ ID NO:1) peptide [fold]	Binder
3	–	–	–	LPRCTEGPWGWVCM-NH2 (disulfide 4-13 (inferred)) [IGE068]
–	> 400	–	–	Ac-NLPRCTEGPWGWVC (disulfide 5-14 (inferred)) [IGE082]
–	256	–	–	NLPRCTEAPWGWVCM (disulfide 5-14 (inferred), also called G8A) [IGE079]
34	–	–	–	PRCTEGPWGWVCM-NH2 (disulfide 3-12 (inferred)) [IGE069]
–	–	37	> 4	EIQECTEGPWGWFCVGSG (disulfide 5-14 (inferred), also called peptide of clone g8b.11) [synthetic peptide EIQECTEGPWGWFCVGSG (SEQ ID NO:8)]

Each binder was assayed against T2, extracellular domain of the alpha … (assay: SPR biosensor (BIAcore), peptide over immobilized FcεRIα, steady-state saturation curve, 4-parameter fit).
Method: *peptide is a dimer. SEQ ID NO: describes each monomer of the dimer. "ava" = amino-valeric acid Several peptides were also tested in a direct-binding assay using a surface plasmon resonance biosensor (Lofas & Johnsson, *J. Chem. Soc. Commun.* 21, 1526–1528 (1990)). FcεRIα, produced in baculovirus infected insect cells, was immobilized by the surface thiol method (BIAcore Methods Manual Supplement 5a, BIAcore, Inc., Piscataway, N.J.). Briefly, receptor was reacted with 2-(2-pyridinyldithio)ethaneamine hydrochloride (PDEA; Natake & Swaisgood, *J. Biochem.* 74, 77–86 (1973)), desalted into 10 mM sodium acetate (pH 4.8) and stored in aliquots at −80° C. Thawed PDEA-receptor was injected over carboxymethyl-dextran (B1 or CM5, BIAcore, Inc.) biosensor chips preactivated with N-ethyl-N'-(3-dimethylaminopropyl)-carbodiimide hydrochloride (EDC) and N-hydroxysuccinimide (NHS), cystamine, and DTT. Following coupling, reactive groups on the chip were quenched with PDEA and ethanolamine. Serial dilutions of peptide in running buffer (phosphate-buffered saline containing 0.05% Tween-20, 0.01% sodium azide) were injected over the immobilized receptor, and the net amount of peptide bound at steady-state was measured as the net change in response (RU) at a point just prior to termination of peptide injection, compared to a running-buffer baseline. Binding affinities (Table 10) are reported as the midpoint ($EC50$) of a 4-parameter fit to the peptide saturation curve. In the case of IGE134 (SEQ ID NOS:), the value shown indicates the Kd calculated from the rate constants, $kon$ and $koff$. The results of binding assays (Table 8) correlate well with those of inhibition assays (Table 7).

Binder	EC50 [nM]
IVCPRLCYVGGKALCPDVCYV-NH2 (disulfide (positions not given here); also: oxidized, disulfide-bonded Cys, pairing not given here) [IGE120]	260
IVCARLCYVGGKALCPDVCYV-NH2 (disulfide (positions not given here); not fully specified (bridges); also: oxidized, disulfide-bonded Cys, pairing not given here, P4A variant of IGE120) [IGE127]	13000
VQCPHFCYVGGKALCPDVCYV-NH2 (disulfide (positions not given here); also: oxidized, disulfide-bonded Cys, pairing not given here) [IGE122]	150
ALCPAVCYV-NH2 (also: antiparallel disulfide-linked homodimer, interchain C3-C7' and C7-C3', also called IGE037 dimer) [IGE089]	64000
ALCPAVCYVGGKALCPDVCYV-NH2 (disulfide 7-15, 3-19; N-terminus assumed; SMILES CC(C)C[C@H](NC(=O)[C@H](C)N)C(=O)N[C@H]1CSSC[C@@H](C(=O)N[C@@H](Cc2ccc(O)cc2)C(=O)N[C@H](C(N)=O)C(C)C)NC(=O)[C@H](C(C)C)NC(=O)[C@H](CC(=O)O)NC(=O)[C@@H]2CCCN2C(=O)[C@@H]2CSSC[C@H](NC(=O)[C@H](C(C)C)NC(=O)[C@H](C)NC(=O)[C@@H]3CCCN3C1=O)C(=O)N[C@@H](Cc1ccc(O)cc1)C(=O)N[C@@H](C(C)C)C(=O)NCC(=O)NCC(=O)N[C@@H](CCCCN)C(=O)N[C@@H](C)C(=O)N[C@@H](CC(C)C)C(=O)N2, single chain dimer form of IGE089 with Ala17Asp) [IGE083]	1100

Now from value to binder:

EC50 [nM]	Binder
1400	NGCPGWCYVGGKALCPDVCYV-NH2 (disulfide 7-15, 3-19; N-terminus assumed; SMILES CC(C)C[C@@H]1NC(=O)[C@H](C)NC(=O)[C@H](CCCCN)NC(=O)CNC(=O)CNC(=O)[C@H](C(C)C)NC(=O)[C@H](Cc2ccc(O)cc2)NC(=O)[C@@H]2CSSC[C@H](NC1=O)C(=O)N1CCC[C@H]1C(=O)N[C@@H](CC(=O)O)C(=O)N[C@@H](C(C)C)C(=O)N[C@H](C(=O)N[C@@H](Cc1ccc(O)cc1)C(=O)N[C@H](C(N)=O)C(C)C)CSSC[C@H](NC(=O)CNC(=O)[C@@H](N)CC(N)=O)C(=O)N1CCC[C@H]1C(=O)NCC(=O)N[C@@H](Cc1c[nH]c3ccccc13)C(=O)N2) [IGE119]
180	VKCPSLCYVGGKALCPDVCYV-NH2 (disulfide (positions not given here); also: oxidized, disulfide-bonded Cys, pairing not given here) [IGE123]
340	VVCPNMCYVGGKALCPDVCYV-NH2 (disulfide (positions not given here); also: oxidized, disulfide-bonded Cys, pairing not given here) [IGE121]

Each binder was assayed against T3, alpha subunit of the human FcεRI … (assay: inhibition of 125I-IgE binding to CHO cells expressing human FcεRI alpha subunit).
Method: as §1, with “Cells were […]” for “Cells were”

Binder	IC50 [µM]
Ac-NLPRCTEGPAWGWVCM (disulfide 5-15 (inferred), synthetic) [IGE125]	259
NLPRCTEGPWGWVCMAAD-NH2 (disulfide 5-14 (inferred), synthetic) [IGE043]	1.4

The next lines start with the values.

IC50 [µM]	Binder
2.5	Ac-NLPRCTEGPWGWVC[hSer(lactone)] (disulfide 5-14 (inferred)) [IGE133]
28	Ac-NLPCTEGPWGWVCM (disulfide 4-13 (inferred), synthetic; As printed it lacks the Arg before the first Cys) [IGE107]
